Values quoted from earlier work, collected in publication PMC5430633.

Target: LC3B (Homo sapiens) (UniProt Q9GZQ8)

Q: For Nix LIR (from UniProt O60238), which Kd is on record?
A: Its Kd is 91 µM.
